From patent US20240123070A1 (published 2024)

Molecular target: T1, KRAS G13D (G13D-RT6) peptide on HLA-DQA1*05:01 / HLA-DQB1*03:01 (human)
T1 peptide: YKLVVVGAGDVGKSAL
Test: NFAT-luciferase; Jurkat-NFAT-Luc with the TCR and Lovo-DPA0301:DPB0501 cells loaded with G13D-RT6; against wild-type B8.2.4 TCR; full-length, on cells
Method: The TCR mutant (having a mutation present in CDR3 region) lentiviral vector was transduced into Jurkat-NFAT-Luc cell line, […] (G13D-RT6, SEQ ID NO: 20) were used as antigen-presenting cells (referred to as APCs), 2×10⁴ of the TCR-T and 2×10⁴ of the antigen-loaded APCs were co-cultured for 16-24 hours, added with ONE Glo Luciferase to detect the fluorescent signal expression, then TCR Mut RLU/WT RLU (ratio of RLU signal value of TCR mutant to RLU signal value of wild-type B8.2.4TCR) was calculated, and the results were shown in Table 9.

Binder	TCR Mut RLU/WT RLU [ratio]
B8.2.4 TCR mutant α97R-A (TCR, V domains shown) Valpha: AQKITQTQPGMFVQEKEAVTLDCTYDTSDPSYGLFWYKQPSSGEMIFLIYQGSYDQQNATEGRYSLNFQKARKSANLVISASQLGDSAMYFCAMREATGTASKLTFGTGTRLQVTL Vbeta: DVKVTQSSRYLVKRTGEKVFLECVQDMDHENMFWYRQDPGLGLRLIYFSYDVKMKEKGDIPEGYSVSREKKERFSLILESASTNQTSMYLCASSQTVPPQHFGDGTRLSIL	0.13
B8.2.4 TCR mutant α97R-E (TCR, V domains shown) Valpha: AQKITQTQPGMFVQEKEAVTLDCTYDTSDPSYGLFWYKQPSSGEMIFLIYQGSYDQQNATEGRYSLNFQKARKSANLVISASQLGDSAMYFCAMREETGTASKLTFGTGTRLQVTL Vbeta: DVKVTQSSRYLVKRTGEKVFLECVQDMDHENMFWYRQDPGLGLRLIYFSYDVKMKEKGDIPEGYSVSREKKERFSLILESASTNQTSMYLCASSQTVPPQHFGDGTRLSIL	0.16
B8.2.4 TCR mutant α97R-I (TCR, V domains shown) Valpha: AQKITQTQPGMFVQEKEAVTLDCTYDTSDPSYGLFWYKQPSSGEMIFLIYQGSYDQQNATEGRYSLNFQKARKSANLVISASQLGDSAMYFCAMREITGTASKLTFGTGTRLQVTL Vbeta: DVKVTQSSRYLVKRTGEKVFLECVQDMDHENMFWYRQDPGLGLRLIYFSYDVKMKEKGDIPEGYSVSREKKERFSLILESASTNQTSMYLCASSQTVPPQHFGDGTRLSIL	0.16
B8.2.4 TCR mutant α97R-S (TCR, V domains shown) Valpha: AQKITQTQPGMFVQEKEAVTLDCTYDTSDPSYGLFWYKQPSSGEMIFLIYQGSYDQQNATEGRYSLNFQKARKSANLVISASQLGDSAMYFCAMRESTGTASKLTFGTGTRLQVTL Vbeta: DVKVTQSSRYLVKRTGEKVFLECVQDMDHENMFWYRQDPGLGLRLIYFSYDVKMKEKGDIPEGYSVSREKKERFSLILESASTNQTSMYLCASSQTVPPQHFGDGTRLSIL	0.22
B8.2.4 TCR mutant α97R-M (TCR, V domains shown) Valpha: AQKITQTQPGMFVQEKEAVTLDCTYDTSDPSYGLFWYKQPSSGEMIFLIYQGSYDQQNATEGRYSLNFQKARKSANLVISASQLGDSAMYFCAMREMTGTASKLTFGTGTRLQVTL Vbeta: DVKVTQSSRYLVKRTGEKVFLECVQDMDHENMFWYRQDPGLGLRLIYFSYDVKMKEKGDIPEGYSVSREKKERFSLILESASTNQTSMYLCASSQTVPPQHFGDGTRLSIL	0.17
B8.2.4 TCR mutant α97R-D (TCR, V domains shown) Valpha: AQKITQTQPGMFVQEKEAVTLDCTYDTSDPSYGLFWYKQPSSGEMIFLIYQGSYDQQNATEGRYSLNFQKARKSANLVISASQLGDSAMYFCAMREDTGTASKLTFGTGTRLQVTL Vbeta: DVKVTQSSRYLVKRTGEKVFLECVQDMDHENMFWYRQDPGLGLRLIYFSYDVKMKEKGDIPEGYSVSREKKERFSLILESASTNQTSMYLCASSQTVPPQHFGDGTRLSIL	0.17
B8.2.4 TCR mutant α97R-Q (TCR, V domains shown) Valpha: AQKITQTQPGMFVQEKEAVTLDCTYDTSDPSYGLFWYKQPSSGEMIFLIYQGSYDQQNATEGRYSLNFQKARKSANLVISASQLGDSAMYFCAMREQTGTASKLTFGTGTRLQVTL Vbeta: DVKVTQSSRYLVKRTGEKVFLECVQDMDHENMFWYRQDPGLGLRLIYFSYDVKMKEKGDIPEGYSVSREKKERFSLILESASTNQTSMYLCASSQTVPPQHFGDGTRLSIL	0.16
B8.2.4 TCR mutant α97R-W (TCR, V domains shown) Valpha: AQKITQTQPGMFVQEKEAVTLDCTYDTSDPSYGLFWYKQPSSGEMIFLIYQGSYDQQNATEGRYSLNFQKARKSANLVISASQLGDSAMYFCAMREWTGTASKLTFGTGTRLQVTL Vbeta: DVKVTQSSRYLVKRTGEKVFLECVQDMDHENMFWYRQDPGLGLRLIYFSYDVKMKEKGDIPEGYSVSREKKERFSLILESASTNQTSMYLCASSQTVPPQHFGDGTRLSIL	0.18
B8.2.4 TCR mutant α97R-Y (TCR, V domains shown) Valpha: AQKITQTQPGMFVQEKEAVTLDCTYDTSDPSYGLFWYKQPSSGEMIFLIYQGSYDQQNATEGRYSLNFQKARKSANLVISASQLGDSAMYFCAMREYTGTASKLTFGTGTRLQVTL Vbeta: DVKVTQSSRYLVKRTGEKVFLECVQDMDHENMFWYRQDPGLGLRLIYFSYDVKMKEKGDIPEGYSVSREKKERFSLILESASTNQTSMYLCASSQTVPPQHFGDGTRLSIL	0.16
B8.2.4 TCR mutant α97R-N (TCR, V domains shown) Valpha: AQKITQTQPGMFVQEKEAVTLDCTYDTSDPSYGLFWYKQPSSGEMIFLIYQGSYDQQNATEGRYSLNFQKARKSANLVISASQLGDSAMYFCAMRENTGTASKLTFGTGTRLQVTL Vbeta: DVKVTQSSRYLVKRTGEKVFLECVQDMDHENMFWYRQDPGLGLRLIYFSYDVKMKEKGDIPEGYSVSREKKERFSLILESASTNQTSMYLCASSQTVPPQHFGDGTRLSIL	0.16
B8.2.4 TCR mutant α97R-K (TCR, V domains shown) Valpha: AQKITQTQPGMFVQEKEAVTLDCTYDTSDPSYGLFWYKQPSSGEMIFLIYQGSYDQQNATEGRYSLNFQKARKSANLVISASQLGDSAMYFCAMREKTGTASKLTFGTGTRLQVTL Vbeta: DVKVTQSSRYLVKRTGEKVFLECVQDMDHENMFWYRQDPGLGLRLIYFSYDVKMKEKGDIPEGYSVSREKKERFSLILESASTNQTSMYLCASSQTVPPQHFGDGTRLSIL	0.24
B8.2.4 TCR mutant α97R-H (TCR, V domains shown) Valpha: AQKITQTQPGMFVQEKEAVTLDCTYDTSDPSYGLFWYKQPSSGEMIFLIYQGSYDQQNATEGRYSLNFQKARKSANLVISASQLGDSAMYFCAMREHTGTASKLTFGTGTRLQVTL Vbeta: DVKVTQSSRYLVKRTGEKVFLECVQDMDHENMFWYRQDPGLGLRLIYFSYDVKMKEKGDIPEGYSVSREKKERFSLILESASTNQTSMYLCASSQTVPPQHFGDGTRLSIL	0.13
B8.2.4 TCR mutant α97R-V (TCR, V domains shown) Valpha: AQKITQTQPGMFVQEKEAVTLDCTYDTSDPSYGLFWYKQPSSGEMIFLIYQGSYDQQNATEGRYSLNFQKARKSANLVISASQLGDSAMYFCAMREVTGTASKLTFGTGTRLQVTL Vbeta: DVKVTQSSRYLVKRTGEKVFLECVQDMDHENMFWYRQDPGLGLRLIYFSYDVKMKEKGDIPEGYSVSREKKERFSLILESASTNQTSMYLCASSQTVPPQHFGDGTRLSIL	0.16
B8.2.4 TCR mutant α97R-T (TCR, V domains shown) Valpha: AQKITQTQPGMFVQEKEAVTLDCTYDTSDPSYGLFWYKQPSSGEMIFLIYQGSYDQQNATEGRYSLNFQKARKSANLVISASQLGDSAMYFCAMRETTGTASKLTFGTGTRLQVTL Vbeta: DVKVTQSSRYLVKRTGEKVFLECVQDMDHENMFWYRQDPGLGLRLIYFSYDVKMKEKGDIPEGYSVSREKKERFSLILESASTNQTSMYLCASSQTVPPQHFGDGTRLSIL	0.23
B8.2.4 TCR mutant α97R-C (TCR, V domains shown) Valpha: AQKITQTQPGMFVQEKEAVTLDCTYDTSDPSYGLFWYKQPSSGEMIFLIYQGSYDQQNATEGRYSLNFQKARKSANLVISASQLGDSAMYFCAMRECTGTASKLTFGTGTRLQVTL Vbeta: DVKVTQSSRYLVKRTGEKVFLECVQDMDHENMFWYRQDPGLGLRLIYFSYDVKMKEKGDIPEGYSVSREKKERFSLILESASTNQTSMYLCASSQTVPPQHFGDGTRLSIL	0.27
